Reference: patent US20150203573A1 (MEDICAL AND BIOLOGICAL LABORATORIES, published 2015)

T1: full length purified peptide of pleiotrophin (PEPTIDE INSTITUTE, INC.: 4335-v) (UniProt P21246 33-168, limits assumed)
T1 construct: mature; Bought product; also called PTN
T1 sequence (looked up): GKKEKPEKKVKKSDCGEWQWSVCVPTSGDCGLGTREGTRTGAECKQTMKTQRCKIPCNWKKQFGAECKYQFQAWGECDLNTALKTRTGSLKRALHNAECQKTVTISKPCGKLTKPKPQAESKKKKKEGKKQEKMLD

T2: mutant MK recombinant protein MK-R81Q (human, UniProt P21741 23-143, R81Q)
T2 construct: range 23-143; Made from MKver10-pQCxmhIPG, secreted from 293T cells; not shown: linker and tag from vector pQCxmhIPG
T2 sequence (looked up): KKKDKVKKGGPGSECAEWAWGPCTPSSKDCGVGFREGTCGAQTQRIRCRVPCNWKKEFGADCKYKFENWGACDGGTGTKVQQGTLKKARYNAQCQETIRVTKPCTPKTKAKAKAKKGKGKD

T3: mutant MK recombinant protein MK-K102Q (human, UniProt P21741 23-143, K102Q)
T3 construct: range 23-143; Made from MKver10-pQCxmhIPG, secreted from 293T cells; not shown: linker and tag from vector pQCxmhIPG
T3 sequence (looked up): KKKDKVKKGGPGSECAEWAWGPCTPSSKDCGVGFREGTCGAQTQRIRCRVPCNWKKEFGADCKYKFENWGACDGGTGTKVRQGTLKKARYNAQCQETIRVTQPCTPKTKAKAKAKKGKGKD

T4: mutant MK recombinant protein MK-W69A (human, UniProt P21741 23-143, W69A)
T4 construct: range 23-143; Made from MKver10-pQCxmhIPG, secreted from 293T cells; not shown: linker and tag from vector pQCxmhIPG
T4 sequence (looked up): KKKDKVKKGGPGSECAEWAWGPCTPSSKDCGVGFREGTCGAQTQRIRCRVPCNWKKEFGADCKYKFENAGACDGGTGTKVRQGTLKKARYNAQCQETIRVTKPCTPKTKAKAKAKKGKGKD

T5: mutant MK recombinant protein MK-K79Q (human, UniProt P21741 23-143, K79Q)
T5 construct: range 23-143; Made from MKver10-pQCxmhIPG, secreted from 293T cells; not shown: linker and tag from vector pQCxmhIPG
T5 sequence (looked up): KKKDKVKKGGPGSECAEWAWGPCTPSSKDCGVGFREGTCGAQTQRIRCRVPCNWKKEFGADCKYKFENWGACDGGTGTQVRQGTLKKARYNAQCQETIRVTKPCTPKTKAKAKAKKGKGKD


Key:
[1] = target: AP-MK, recombinant protein having alkaline phosphatase (AP) fused to the N-terminal of aa23-121 of MK (human) (UniProt P21741); assay: AP-MK binding inhibition assay on TNB1 cells; antibody 10 ug/mL
Target sequence in this assay (P21741 23-143, form in doubt): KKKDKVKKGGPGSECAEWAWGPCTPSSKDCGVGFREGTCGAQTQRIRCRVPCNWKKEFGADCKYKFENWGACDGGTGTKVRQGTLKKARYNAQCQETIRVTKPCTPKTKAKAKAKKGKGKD

[2] = target: T1, full length purified peptide of …; assay: ELISA on full length purified peptide of pleiotrophin
[3] = target: AP-MK, recombinant protein having alkaline phosphatase (AP) fused to the N-terminal of aa23-121 of MK (human) (UniProt P21741); assay: AP-MK binding inhibition assay on TNB1 cells; AP-MK 0.6 U/ml, antibody 90 ug/mL
[4] = target: T2, mutant MK recombinant protein MK-R81Q; assay: ELISA, plates coated with wild type or mutant MK, antibody serially diluted from 5 ug/mL
Experimental: (§1) Hybridomas producing anti-MK antibodies were selected by enzyme-linked immunosorbent assay (ELISA). The assay used the aforementioned recombinant human MK (MKver10) which had been dispensed in a 96-well ELISA plate (nunc) in an amount of 0.5 μg/mL (50 μL/well) and left to stand for 2 hours at room temperature or overnight at […] for adsorption. After removal of the resulting solution, 1% BSA (Nacalai: 01863-35)-5% Sucrose (WAKO)-PBS was added in an amount of 150 μL/well, and the system was allowed to stand for 2 hours at room temperature to block the remaining active groups. After standing of the system, the resulting solution was removed, and the hybridoma culture supernatant (50 μL/well) was dispensed as a primary antibody, whereafter the system was allowed to stand for 1 hour. After the plate was washed with 0.05% Tween 20-PBS, HRP-labeled goat anti-mouse IgG (MBL: 330) diluted 1:10000 was added as a secondary antibody in an amount of 50 μL/well, and the system was allowed to stand for 1 hour at room temperature. After the plate was washed with 0.05% Tween 20-PBS, a color developing solution (5 mM sodium citrate, 0.8 mM 3,3′,5,5′-tetramethylbenzidine-2HCl, 10% N,N-dimethylformamide, 0.625% polyethylene glycol 4000, 5 mM citric acid monohydrate, 5 mM H₂O₂) was added in an amount of 50 μL/well, and the system was allowed to stand for 20 minutes at room temperature to develop a color. 1M phosphoric acid was added in an amount of 50 μL/well to terminate color development, and then the absorbance at 450 nm was measured using a plate reader (Thermo Fisher Scientific).
(§2) The reactivities of the resulting antibodies with the mutant MKs were confirmed by the same enzyme-linked immunosorbent assay (ELISA) as described above. The assays used plates having wild type human MK (MKver10) or the above-mentioned mutant MK (MK-W69A, MK-K79Q, MK-R81Q and MK-K102Q) adsorbed thereto. The anti-MK antibody at a maximum concentration of 5 μg/mL was serially diluted with PBS, and used as a primary antibody. As examples of the antibodies recognizing the N-terminal side or the C-terminal side of midkine, but showing no neutralizing activity, BF106 and FB74 were also evaluated similarly.

[5] = target: T3, mutant MK recombinant protein MK-K102Q; assay: as above
Experimental: as §1, §2

[6] = target: T4, mutant MK recombinant protein MK-W69A; assay: as above
Experimental: as §1, §2

[7] = target: T5, mutant MK recombinant protein MK-K79Q; assay: as above
Experimental: as §1, §2

| relative AP activity (% of wells with AP-MK alone) [1] [%] | Binder | further results |
| --- | --- | --- |
| 22.7 | hFB54-matu024 affinity-improved antibody (IgG) (antibody, V domains shown) VH: EVQLVESGGGLVKPGGYLRLSCAASGFTFSSYAMSWVRQAPGKGLDWVATISSGGSYTYYPDSVKGRFTISRDNAKNSLYLQMNSLTDDDTAVYFCARHNYRYGEYYYAMDYWGQGTLVTVSS VL: ETTVTQSPSSLSASVGDRVTIRCITSIDIDDEMNWYQQKSGKGPKLLISEGNTLRPGVPSRFSSSGYGTDFTLTISSLQPEDFATYYCLQSDNLPYTFGQGTKLEIK | – |
| 28.3 | hFB54-matu062 affinity-improved antibody (IgG) (antibody, V domains shown) VH: EVQLVESGGGLVKPGGYLRLSCAASGFTFSSYAMSWVRQAPGKGLDWVATISSGGSYTYYPDSVKGRFTISRDNAENTLYLQMNSLTNDDTAVYFCARHNYRYDEYYYAMDYWGQGTLVTVSS VL: ETTVTQSPSSLSAFVGGRVAIRCITNIDIDDEMNWYQQKPGKGPKLLISEGNTLRPGVPSRFSSSGYGTDFTLTISSLQPEDFATYYCMQSDNLPYTFGQGTKLEIK | – |
| 33.5 | hFB54-matu054 affinity-improved antibody (IgG) (antibody, V domains shown) VH: EVQLVESGGGLVKPGGYLRLSCAASGFTFSSYAMSWVRQAPGKGLDWVATISSGGSYTYYPDSVKGRFTISRDNTKNTLYLQMNSLTDDDTAVYFCARHNYRYDEYYYAMDYWGQGTLVTVSS VL: ETTVTQSPSSLSASVGDRVTIRCITSIDIEDEMNWYQQKPGKGPKLLISEGNTLRPGVPSRFSSSGYGTDFTLTISSLQPEDFATYYCLQSDNLPYTFGQGTKLEIK | – |
| 33 | hFB54-matu072 affinity-improved antibody (IgG) (antibody, V domains shown) VH: EVQLVESGGGLVKPGGYLRLSCAASGFTFSSYAMSWVRQAPGKGLDWVATISSGGSYTYYPDNVKGRFTISRDNAKNSLYLQMNSLTDDDTAVYFCARHNYRYDEYYHAMDYWGQGTLVTVSS VL: ETTVTQSPSSLFASVGDKVTIRCITSIDIDDEMNWYQQKPGKGPKLLISEGNTLRPGVPSRFSSSGYGTDFTLTISSLQPEDFATYYCLQSDNLPYTFGQGTKLEIK | – |
| 81.8 | humanized FB54 antibody hFB54 (FB54-rHa/FB54-rKc) (antibody, human IgG1, V domains shown) VH: EVQLVESGGGLVKPGGYLRLSCAASGFTFSSYAMSWVRQAPGKGLDWVATISSGGSYTYYPDSVKGRFTISRDNAKNSLYLQMNSLTDDDTAVYFCARHNYRYDEYYYAMDYWGQGTLVTVSS VL: ETTVTQSPSSLSASVGDRVTIRCITSTDIDDEMNWYQQKPGKGPKLLISEGNTLRPGVPSRFSSSGYGTDFTLTISSLQPEDFATYYCLQSDNLPYTFGQGTKLEIK | – |
| 30.1 | hFB54-matu039 affinity-improved antibody (IgG) (antibody, V domains shown) VH: EVRLVESGGGLVKPGGYLRLSCAASGFTFSSYAMSWVRQAPGKGLDWVATISSGGSYTYYPDSVKERFTISRDNAKNSLYLQMNSLTDDDTAVYFCARHNYRYDEYYYGMDYWGQGTLVTVSS VL: ETTVTQSPSSLSASVGDRVTIRCKTSIDIDDEMNWYQQKPGKGPKLLISEGNTLRPGVPSRFSSSGYGTDFTLTISSLQPEDFATYYCLQSDNLPYTFGQGTKLGIK | – |
| 26.8 | hFB54-matu020 affinity-improved antibody (IgG) (antibody, V domains shown) VH: EVQLVESGGGLVKPGGYQRLSCAASGFTFSSYAMSWVRQAPGKGLDWVATISSGGSYTYYPDSVKGRFTISRDNAKNSLYLQMNNLTDDDTAVYFCARHNYRYDEYYHAMDYWGQGTLVTVSS VL: ETTVTQSPSSLSASVGDRVTIRCITSIDIDDEMNWYQQKPGKGPKLLISEGNTLRPGVPSRFSSSGYGTDFTLTISSLQPEDFATYYCLQSDNLPYTFGQGTKLEIK | – |
| 25.6 | hFB54-matu014 affinity-improved antibody (IgG) (antibody, V domains shown) VH: EVQLVESGGGLVKPGGYLRLSCAASGFTFSSYAMSWVRQTPGKGLDWVATISSGGSYTYYPDSVKGRFTISRDNVKNSLYLQMNSLTDDDTAVYFCARHNYRYDEYYYAMDYWGQGTLVTVSS VL: ETTVTQSPSSLSASVGDRVTIRCITNIDIDDEMNWYQQKPGKGPKLLISEGNTLRPGVPSRFSSSGYGTDFTLTISSLQPEDFATYYCLQSDNLPYTFGRGTKLEIK | – |
| – | anti-human midkine mouse monoclonal antibody FB54 (antibody, V domains shown, Mouse hybridoma IgG; variable genes were amplified with mouse IgG1 CH1 and kappa constant primers; also called mFB54; mouse FB54 antibody) VH: EVMLVESGGGLVKPGGSLKLSCAASGFTFSSYAMSWVRQTPEKRLEWVATISSGGSYTYYPDSVKGRFTISRDNAKNTLYLQMSSLRSEDTAMYFCARHNYRYDEYYYAMDYWGQGTSVTVSS VL: ETTVTQSPTSLSMAIGEKVTIRCITSTDIDDEMNWYQQKPGEPPKLLISEGNTLRPGVPSRFSSSGYGTDFVFTIENMLSEDVADYYCLQSDNLPYTFGGGTKLEIK | binding result [2]: no binding; relative AP activity (% of wells with AP-MK alone) [3]: 29.5%; binding result [4]: binds; binding result [5]: binds; binding result [6]: binds; binding result [7]: binds |
| 20 | mFB54-matu089 affinity-improved antibody (IgG) (antibody, V domains shown) VH: EVMLVESGGGLVEPGGSLKLSCTVSGFTFSSYAMSWVRQTPEKRLEWVATISSGGSYTYYPDSVKGRFTISRDNAKNTLYLQMSSLRSEDTAMYFCARHNYRYDEYYYAMDYWGHGTSVTVSS VL: ETTVTQSPTSLSMAIGEKVTIRCITSIDIDDEMNWYQQKPGEPPKLLISEGNTLRPGVPSRFSSSGYGTDFVFTIENVLSEDVADYYCLQSDNLPYTFGGGTKLEIK | – |
| 18.9 | mFB54-matu002 affinity-improved antibody (IgG) (antibody, V domains shown) VH: EVMLVESGGGLVKPGGSLKLSCAASGFTFSSYAMSWVRQTPEKRLEWVATISSGGSYTYYPDSVKGRFTISRDNAKNTLYLQMSSLRSEDTAMYFCARHNYRYDEYYYAMDYWGQGTSVTVSS VL: ETTVTQSPTSLSMAIGEKVTIRCTTSIDIDDEMNWYQQMPGEPPKLLISEGNTLRPGVPSRFSSSGYGTDFVFTIENMLSEDVADYYCLQSDNLPYTFGGGTKLEIK | – |
